The values below come from PMC6849719, “Characterization of the first naturally thermostable terpene synthases and development of strategies to improve thermostability in this family of enzymes” (The Febs Journal, 2017).

As a reminder, the Km is the concentration of substrate that gives half-maximal velocity. What is called kcat is the number of substrate molecules converted per active site and unit of time at saturation.

Data set [1] relates to T1, CC(C)=CCC/C(C)=C/CC/C(C)=C/CO[P@@](=O)(O)OP(=O)(O)O.
T1 construct: full length (326 residues), N-terminal His6 tag (pET28a, NheI-EcoRI), codon-optimised gene, E. coli BL21(DE3); ~40 kDa
In words: purified protein. The class given is biochemical, Roseiflexus sp. RS-1. Particulars: 65 °C, 10 mM MgCl2, TS buffer (MES/Tris/CAPS, 100 mM NaCl), 1 μM enzyme, FPP 1.2-92 μM, commercial ammonium salt.

Substrate in the data set “purified protein”: CC(C)=CCC/C(C)=C/CC/C(C)=C/CO[P@@](=O)(O)OP(=O)(O)O
In words: purified protein. The class given is biochemical, Roseiflexus castenholzii. Particulars: 65 °C, 10 mM MgCl2, TS buffer (MES/Tris/CAPS, 100 mM NaCl), 1 μM enzyme, FPP 1.2-92 μM, commercial ammonium salt.

Regarding RoseRS_3509 (Roseiflexus sp. RS-1), in data set [1], the Km came to 87 ± 31 µM and the kcat came out at 0.95 ± 0.29 s⁻¹.

B1: Rcas_0622 (Roseiflexus castenholzii DSM 13941) (protein)
chain: MDQDYRARLVYPFSGAISPHADIVDQATLAWAAMFGLLTDSLRHKSRRLQYGLLAARAYPRADREMLQIAADWIAWLFFMDDQCDETGIGRDLQRMIALHERFLAILDGATPEAHDCALTYALADLRRRLALRAPDNWLRRFSEHVRLYFTANRWETVNRQRGATPNVATYCAARLFSGAVYACFDLIELAEQIELPFYARHHSIVQQLEQAANNIICWCNDVLSYPKEMQHGDRHNLVLVIQGEHQCSLPEAIDRALDLHAREVATFVRKRTCVPYFDAAVNTALEKYVTGLQFWICANRDWSLTATRYAPTHKSQEMVMAVAQQ
notes: full length, N-terminal His6 tag (pET28a, NheI-EcoRI), codon-optimised gene, E. coli BL21(DE3); ~40 kDa
As for B1, in the data set “purified protein”, the Michaelis constant (Km) is 5.9 ± 2.0 µM and the turnover number (kcat) was determined as 0.09 ± 0.008 s⁻¹.
